The target of data set [1] is 10-kD NH2-terminal fragment of the invariant chain (Ii-p10) (mouse). Description: SEC + co-IP.
The data set “SEC + co-IP” deals with the molecule itself. The data set can be described thus: SEC + co-IP.

Broadly, the stoichiometry N is a count of units in the complex or per binding partner. Consider “10-kD NH2-terminal fragment of the invariant chain (Ii-p10) (domain or fragment)”, for which, in data set [1], the stoichiometry N turned out to be 3.

B1: intact invariant (Ii) chain (natural protein, mouse, UniProt P04441-2 1-215, looked up)
chain: MDDQRDLISNHEQLPILGNRPREPERCSRGALYTGVSVLVALLLAGQATTAYFLYQQQGRLDKLTITSQNLQLESLRMKLPKSAKPVSQMRMATPLLMRPMSMDNMLLGPVKNVTKYGNMTQDHVMHLLTRSGPLEYPQLKGTFPENLKHLKNSMDGVNWKIFESWMKQWLLFEMSKNSLEEKKPTEAPPKEPLDMEDLSSGLGVTRQELGQVTL
Regarding B1, in “SEC + co-IP”, the “stoichiometry N” value is 3.

For the origin of these results see publication PMC2191985 (The Journal of Experimental Medicine, 1995).
